Assay results as given in publication PMC12706091.

Molecular target: recombinant Flag-DIC1B (rFlag-DIC1B)
Assay: pull-down; 2 μg Flag-DIC1B on anti-Flag magnetic beads, 2 μg each of Myc-ANXA7 and TIA1 added; NP40 lysis buffer with 0.5 M L-arginine, 4 °C; with or without 1 mM CaCl2; western blot

B1: recombinant TIA1 (rTIA1) (natural protein)
chain: MEDEMPKTLYVGNLSRDVTEALILQLFSQIGPCKNCKMIMDTAGNDPYCFVEFHEHRHAAAALAAMNGRKIMGKEVKVNWATTPSSQKKDTSSSTVVSTQRSQDHFHVFVGDLSPEITTEDIKAAFAPFGRISDARVVKDMATGKSKGYGFVSFFNKWDAENAIQQMGGQWLGGRQIRTNWATRKPPAPKSTYESNTKQLSYDEVVNQSSPSNCTVYCGGVTSGLTEQLMRQTFSPFGQIMEIRVFPDKGYSFVRFNSHESAAHAIVSVNGTTIEGHVVKCYWGKETLDMINPVQQQNQIGYPQPYGQWGQWYGNAQQIGQYMPNGWQVPAYGMYGQAWNQQGFNQTQSSAPWMGPNYGVQPPQGQNGSMLPNQPSGYRVAGYETQ
fold change of TIA1 pulled down with DIC1B, with Myc-ANXA7 against without: 4 fold
